Experimental data reported in the supplement of paper PMC12764529.
± gives the half width of the 95% confidence interval.

assay: folding stability dG unfold from chymotrypsin proteolysis; higher = more stable
Outline: (§1)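 Mini-proteins designed to be under 80 residues and free of cysteine were carried in a PA-tagged cDNA display construct and digested with trypsin and with chymotrypsin. Each protease was applied at 11 threefold-diluted concentrations, alongside a no-protease condition, before sequencing. K50 came from Bayesian fitting of the sequencing counts, and unfolding free energy was obtained by comparing it with a sequence-predicted unfolded-state K50 and a shared folded-state K50, for each protease separately or for both together. Designs were retained only if their AlphaFold2 dimer inter-PAE exceeded 15.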

Sequence	folding stability dG unfold
SAGGSALKIPSGKKYTVVVKDPNKPVEYVADVIERHPDSILIEVKDPNSSKTKKITVPTNVITIDLSAGGSA [r15_381_JUSTAS]	0.684 ± 0.16 kcal/mol
PKWYEMNITINLPPDDPQKVKELKDALKKRNPDYKVKDIQFNPDDGQITINVWMPPQDQNRFQKAIKELLGS [r1_443_TrROS]	2.31 ± 0.025 kcal/mol
SAGGEEELKKNPDLIVIKITIRNKETGEEIEELEIVLSKEELEELLETLRKLLPPGWEIVKVEIRKLPSAGG [r13_849_TrROS_Hall]	3.02 ± 0.14 kcal/mol
SAGGSETVEIELGSEDGTVYKIEIERFPETGLLLIKVDGPDPKVIEKVVKELGVDVVEVLEDGYVLLASAGG [r13_937_TrMRF]	1.89 ± 0.05 kcal/mol
SMTITFKTEEEAKKAAEELLKELEKKLKPGQKIKITVTTEDGKTITIEIEIKPPKKEVEVDEETGELKEKSA [r9_596_TrROS_Hall]	2.26 ± 0.081 kcal/mol
SAGGSLIEKIAKEAGIKVEISKEETNGSPVLTITITKGDKNIVFKDDGKDPEKLVKELAKKIGIKPISAGGS [r8_226_JUSTAS]	0.414 ± 0.086 kcal/mol
SAGGSAAPLPPDETEVRVEYRYDPEKGVLVITTTTTRFTPEGGATPLETRPVVVEVTEEEKKKVELSAGGSA [r15_191_JUSTAS]	1.04 ± 0.095 kcal/mol
SAGGSAGGSELSDEEIEALRKPPKVRIRVEIVYPDGTVEEREFSSLEEALAAAKERNVTVKILSAGGSAGGS [r12_244_TrROS_Hall]	1.76 ± 0.058 kcal/mol
SAGGSAGGVIRMPFVIPDGYVIKDLTVHWSPGNGMFMIEIEIEPVKPPPPPEISPEELNKKNNKSAGGSAGG [r6_148_TrROS]	2.57 ± 0.04 kcal/mol
SAGGSAGVLEAVVFNPETGTFSVIPAAVLEKAFAANPADTELTFTLKDKPVKVFVFPGPGLAVVTGSAGGSA [r15_350_TrMRF]	1.56 ± 0.061 kcal/mol
SAGGSAGGDTLTIVVEGMSAEELAALLKELFPDAEVTVTEVGEPRLVTVTVTVKVETEFELPEESAGGSAGG [r6_607_TrROS_Hall]	2.36 ± 0.087 kcal/mol
SAGGMKLTPEELKGKTIRIRIKVNGKEYEIEAKVVEVDGELYIEVKIINKETKEEKTITIPLDDVEIVSAGG [r13_289_TrROS_Hall]	2.1 ± 0.064 kcal/mol
SAGGSAGGSAVTVDPSSNVVTTTDPATGTSTVTTTPPLPNGTPVLTSTTTTDAAGTPTTTTVTSAGGSAGGS [r12_952_JUSTAS]	1.38 ± 0.049 kcal/mol
SAGGSAGGKEFEIEKVEITVENGTITIRMIVRDKETNEYYEVEKTITFDPETKELHVEIKVKKVSAGGSAGG [r6_604_TrROS_Hall]	3.23 ± 0.1 kcal/mol
SAGGSMSPWHWARHIAKKLRKKFPPGKKVRIKIEYDDGPVEFEIPPGEWIPIPSNAPIEILNIKVKSAGGSA [r2_391_TrROS]	2.36 ± 0.11 kcal/mol
SAGGSAGGSAGGNWVMIEFNFPPGKKLKIEIPNGRDIQRHRDPDNGTLWFMIPPEAAEDFSAGGSAGGSAGG [r7_155_TrROS]	0.509 ± 0.26 kcal/mol
GSARFEASAFLAELPFPPQRVLVVLVRGEDGRVRLFVFFPDGSVVEFDLETGRVVRVIDLPDAPLPPGLLES [r1_409_TrMRF]	3.63 ± 0.075 kcal/mol
SAGGEVIELKIKFKTPEQREKLKEIAKKLNAEVVEEKDGEVIIRFKTPEQAERALKEAEKLGAEVELSAGGS [r16_88_TrROS_Hall]	4.47 ± 0.097 kcal/mol
PMIAPARLPDGSQTVSIFNANGELLVEAVVENDPELIEEAIEKLFEALPNIKPEELHVSVSDPETGESREIS [r1_55_TrMRF]	0.345 ± 0.17 kcal/mol
SAGGSAGGSAGGNPGGKRQWVMMEFPIPPGKKIELPPNFNVSIFRDNDRLWLMITVDAVKSAGGSAGGSAGG [r7_584_TrROS]	1.88 ± 0.06 kcal/mol
SAGSSSSLPNVLVVTLYLPDAPLPIVLPVDTPEDVELAKERVKEIEKELEELGLPVNVEFKYYPPGFPVSAG [r5_823_TrMRF]	-1.16 ± 0.84 kcal/mol

assay: folding stability dG unfold (combined trypsin and chymotrypsin); higher = more stable
Outline: as §1

Sequence	folding stability dG unfold
SAGGSAGGSAGTLKLTLEVTVTRLYRLPDGSGSLVAETVRVRVEVELEVDELDEDGRLLLSAGGSAGGSAGG [r11_558_TrROS_Hall]	3.18 ± 0.07 kcal/mol
SAGMVIPILLKPEPERPEEVEKKAIEFANKLKPLNLPNVKIKVYRAPYVDPETGKTTVLYLVLIEVEPPSAG [r5_49_TrMRF]	2.4 ± 0.19 kcal/mol
SAMTPEEIKERLAAELPPSAEVMTTETFKEGDVEYVKITLRTPDSLSEATYNLETGEIERTPIGLDVPQSAG [r14_737_JUSTAS]	0.792 ± 0.15 kcal/mol
SAGGSAGGSAGKIEVEGDVEVTVFPPYGLATVTTPNGERYVLLVETRPDGSKRVLLFSAGSAGGSAGGSAGG [r11_331_TrMRF]	2.26 ± 0.045 kcal/mol
SAGGSAGGRKTRRLVLEVDDIPEGVSAEELTEEELRRLGLPPDARIRVVRRPDGRLLVVIEVRESAGGSAGG [r6_551_TrROS_Hall]	2.42 ± 0.051 kcal/mol
SAGGSAGGSAGGMMKITIEVDGKKIEITLPPGAELKFDKEKKEIYIRNKKTNEILKLKIKSAGGSAGGSAGG [r7_7_TrROS_Hall]	2.21 ± 0.11 kcal/mol
SAGGSAGGSAGKKKILLKFKSAEEALEAIKKGKTIKLKNGKTVKVKKVTLDKNGYLLIELSAGGSAGGSAGG [r11_48_TrROS_Hall]	2.44 ± 0.06 kcal/mol
SAGGSAGGSSVLEVDPETGITVAVQDPSTGRYYVRNPEGEIREFDSPEEIREAFGRPVNFKTAPSAGGSAGG [r6_753_JUSTAS]	0.753 ± 0.057 kcal/mol
SAGGDDKWKIEIDIQPHDDYWVITARIRDPNGKERERMFMMPPDNIKKILNELPPEIEDIEVHRVPNSAGGS [r16_298_TrROS]	2.53 ± 0.17 kcal/mol
SAGGSAGGSAGAEIKIKKVEKKDSKLKLILPDGRIYEVKKDKKKSNSIKKIKIKKLPPLKSAGGSAGGSAGG [r17_173_JUSTAS]	-0.0549 ± 0.47 kcal/mol
SAGGSAGGSAGKKITLPNATITYDEETGEVTITVDGKTITLPPGAKIEVDENGNLTIYLPSAGGSAGGSAGG [r17_34_TrROS_Hall]	2.55 ± 0.12 kcal/mol
SAGGSAGGSAGNMEVIEEVEFTFPGLGVKISVSIFKTDGGIVIMIDIEIPMPPEDRKKFKSAGGSAGGSAGG [r17_431_TrROS]	1.25 ± 0.15 kcal/mol
MKTIEIEIKLSPEIKEALKEGKPLSLEELVNKIKEEIAKKLGLKEVKVKKIEIKKDENGEIIIKVTIEVKPS [r1_290_TrROS_Hall]	3.31 ± 0.27 kcal/mol
SAGMILTIRPEDGSEEIIPVPKEDIEKLIEDLEKKGIKVLSMTTSPDGVSTIPTQYPDGKKMTITVHLDSAG [r5_645_JUSTAS]	0.677 ± 0.16 kcal/mol
SAGGSAGGSAGDENEKPKPKMQMKMIQIKFPPEDLPELAEEFGIDSVHIMPNGSLFIMVYSAGGSAGGSAGG [r11_64_TrROS]	1.36 ± 0.18 kcal/mol
SAGGSAKVIVEELPDGSIKIYFPETGAVIVLNPETGEAVVFVNPKKKNNEPPSLDDVLKAAKEALGSAGGSA [r15_735_TrMRF]	1.28 ± 0.063 kcal/mol
SAMSLTIETDGSLEDVIAALKAFLEANPNVPFIISPPNGEVKVIDLGLADKILVIPDPDGKVRITVINPSAG [r14_807_TrMRF]	1.75 ± 0.036 kcal/mol
SAGGNLFIRIKIEHDGGPITHWFPIKDAEQAKDNIKEFFDQQGLPVKIKEIEVFPEEGFIPVEWRVPPSAGG [r13_567_TrROS]	0.348 ± 0.11 kcal/mol
SAGGSAGGSAGGVPEDVIMSPVSTTLVEKEVLSTEVTPEGAPKTVEKVLIVEKTLEPLLSAGGSAGGSAGGS [r10_758_JUSTAS]	-0.429 ± 0.29 kcal/mol
SAGGSAGGSHRIIFRINSPGMPPRQAADRIADMLQEEHGLKIKGVDIWTYPNGSYWVTITIEPSAGGSAGGS [r12_781_TrROS]	2.89 ± 0.073 kcal/mol
SMKIPVKTNDPEALKELLNKIKEILEKAKEKGYEIFPIPIILDNGKEIIFPIDPNDKIEEVIKKIEEALKSA [r9_127_TrMRF]	2.02 ± 0.23 kcal/mol

Sequence	folding stability dG unfold
SAGGSALKIPSGKKYTVVVKDPNKPVEYVADVIERHPDSILIEVKDPNSSKTKKITVPTNVITIDLSAGGSA [r15_381_JUSTAS]	0.464 ± 0.19 kcal/mol
PKWYEMNITINLPPDDPQKVKELKDALKKRNPDYKVKDIQFNPDDGQITINVWMPPQDQNRFQKAIKELLGS [r1_443_TrROS]	2.12 ± 0.084 kcal/mol
SAGGEEELKKNPDLIVIKITIRNKETGEEIEELEIVLSKEELEELLETLRKLLPPGWEIVKVEIRKLPSAGG [r13_849_TrROS_Hall]	4 ± 0.3 kcal/mol
SAGGSETVEIELGSEDGTVYKIEIERFPETGLLLIKVDGPDPKVIEKVVKELGVDVVEVLEDGYVLLASAGG [r13_937_TrMRF]	1.78 ± 0.065 kcal/mol
SMTITFKTEEEAKKAAEELLKELEKKLKPGQKIKITVTTEDGKTITIEIEIKPPKKEVEVDEETGELKEKSA [r9_596_TrROS_Hall]	1.97 ± 0.18 kcal/mol
SAGGSLIEKIAKEAGIKVEISKEETNGSPVLTITITKGDKNIVFKDDGKDPEKLVKELAKKIGIKPISAGGS [r8_226_JUSTAS]	0.422 ± 0.19 kcal/mol
SAGGSAAPLPPDETEVRVEYRYDPEKGVLVITTTTTRFTPEGGATPLETRPVVVEVTEEEKKKVELSAGGSA [r15_191_JUSTAS]	1.17 ± 0.1 kcal/mol
SAGGSAGGSELSDEEIEALRKPPKVRIRVEIVYPDGTVEEREFSSLEEALAAAKERNVTVKILSAGGSAGGS [r12_244_TrROS_Hall]	2.28 ± 0.089 kcal/mol
SAGGSAGGVIRMPFVIPDGYVIKDLTVHWSPGNGMFMIEIEIEPVKPPPPPEISPEELNKKNNKSAGGSAGG [r6_148_TrROS]	2.41 ± 0.12 kcal/mol
SAGGSAGVLEAVVFNPETGTFSVIPAAVLEKAFAANPADTELTFTLKDKPVKVFVFPGPGLAVVTGSAGGSA [r15_350_TrMRF]	1.45 ± 0.053 kcal/mol
SAGGSAGGDTLTIVVEGMSAEELAALLKELFPDAEVTVTEVGEPRLVTVTVTVKVETEFELPEESAGGSAGG [r6_607_TrROS_Hall]	2.28 ± 0.1 kcal/mol
SAGGMKLTPEELKGKTIRIRIKVNGKEYEIEAKVVEVDGELYIEVKIINKETKEEKTITIPLDDVEIVSAGG [r13_289_TrROS_Hall]	2.39 ± 0.25 kcal/mol
SAGGSAGGSAVTVDPSSNVVTTTDPATGTSTVTTTPPLPNGTPVLTSTTTTDAAGTPTTTTVTSAGGSAGGS [r12_952_JUSTAS]	2.04 ± 0.059 kcal/mol
SAGGSAGGKEFEIEKVEITVENGTITIRMIVRDKETNEYYEVEKTITFDPETKELHVEIKVKKVSAGGSAGG [r6_604_TrROS_Hall]	3.91 ± 0.16 kcal/mol
SAGGSMSPWHWARHIAKKLRKKFPPGKKVRIKIEYDDGPVEFEIPPGEWIPIPSNAPIEILNIKVKSAGGSA [r2_391_TrROS]	2.25 ± 0.11 kcal/mol
SAGGSAGGSAGGNWVMIEFNFPPGKKLKIEIPNGRDIQRHRDPDNGTLWFMIPPEAAEDFSAGGSAGGSAGG [r7_155_TrROS]	0.636 ± 0.27 kcal/mol
GSARFEASAFLAELPFPPQRVLVVLVRGEDGRVRLFVFFPDGSVVEFDLETGRVVRVIDLPDAPLPPGLLES [r1_409_TrMRF]	3.39 ± 0.12 kcal/mol
SAGGEVIELKIKFKTPEQREKLKEIAKKLNAEVVEEKDGEVIIRFKTPEQAERALKEAEKLGAEVELSAGGS [r16_88_TrROS_Hall]	4.48 ± 0.17 kcal/mol
PMIAPARLPDGSQTVSIFNANGELLVEAVVENDPELIEEAIEKLFEALPNIKPEELHVSVSDPETGESREIS [r1_55_TrMRF]	0.671 ± 0.19 kcal/mol
SAGGSAGGSAGGNPGGKRQWVMMEFPIPPGKKIELPPNFNVSIFRDNDRLWLMITVDAVKSAGGSAGGSAGG [r7_584_TrROS]	1.9 ± 0.11 kcal/mol
SAGSSSSLPNVLVVTLYLPDAPLPIVLPVDTPEDVELAKERVKEIEKELEELGLPVNVEFKYYPPGFPVSAG [r5_823_TrMRF]	0.194 ± 0.18 kcal/mol
